# Test results published in patent US20220185894A1 (F STAR THERAPEUTICS, published 2022).
# T1: recombinant Fc-tagged human LAG-3 (R&D Systems, 2319-L3-050) (human, UniProt P18627 23-450)
# T1 construct: Bought protein; also called LAG-3 Fc; human LAG-3-Fc; not shown: Fc tag of the bought fusion protein
# T1 sequence: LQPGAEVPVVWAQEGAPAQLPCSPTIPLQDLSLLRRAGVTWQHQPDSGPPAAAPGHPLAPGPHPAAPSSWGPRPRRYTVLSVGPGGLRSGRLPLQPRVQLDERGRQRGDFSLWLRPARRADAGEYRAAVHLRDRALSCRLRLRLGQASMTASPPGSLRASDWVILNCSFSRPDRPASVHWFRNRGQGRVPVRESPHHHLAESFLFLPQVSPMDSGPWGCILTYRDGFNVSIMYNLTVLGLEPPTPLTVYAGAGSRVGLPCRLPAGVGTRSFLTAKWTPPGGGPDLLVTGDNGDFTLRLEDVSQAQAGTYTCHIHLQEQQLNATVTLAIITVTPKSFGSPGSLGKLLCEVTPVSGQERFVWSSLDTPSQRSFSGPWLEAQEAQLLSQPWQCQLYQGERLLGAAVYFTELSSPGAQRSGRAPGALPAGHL
# T2: human LAG-3 expressed on cells (human, UniProt P18627 23-525)
# T2 construct: also called hLAG-3; DO11.10 hLAG-3
# T2 sequence: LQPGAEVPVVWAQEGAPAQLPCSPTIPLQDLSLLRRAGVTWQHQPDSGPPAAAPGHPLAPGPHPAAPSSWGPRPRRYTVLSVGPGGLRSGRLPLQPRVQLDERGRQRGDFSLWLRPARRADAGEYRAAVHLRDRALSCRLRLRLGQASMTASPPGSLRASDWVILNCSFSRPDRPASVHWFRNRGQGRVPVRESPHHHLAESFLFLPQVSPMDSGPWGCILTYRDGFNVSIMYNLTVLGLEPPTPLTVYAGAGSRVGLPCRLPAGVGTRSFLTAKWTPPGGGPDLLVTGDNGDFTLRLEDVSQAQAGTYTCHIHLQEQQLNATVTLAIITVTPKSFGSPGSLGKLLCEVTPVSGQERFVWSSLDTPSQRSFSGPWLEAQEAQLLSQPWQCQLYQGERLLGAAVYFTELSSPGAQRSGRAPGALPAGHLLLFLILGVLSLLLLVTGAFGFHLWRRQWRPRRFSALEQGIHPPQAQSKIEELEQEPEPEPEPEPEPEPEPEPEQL
# B1: anti-human LAG-3/PD-L1 mAb2 FS18-7-9/84G09 with LALA mutation (bispecific antibody, human IgG1, kappa, L234A L235A)
# heavy: EVQLVESGGGLVQPGRSLRLSCAASGFTFDDYAMHWVRQTPGKGLEWVSGISWKSNIIGYADSVKGRFTISRDNAKNSLYLQMNSLRAEDTALYYCARDITGSGSYGWFDPWGQGTLVTVSSASTKGPSVFPLAPSSKSTSGGTAALGCLVKDYFPEPVTVSWNSGALTSGVHTFPAVLQSSGLYSLSSVVTVPSSSLGTQTYICNVNHKPSNTKVDKKVEPKSCDKTHTCPPCPAPEAAGGPSVFLFPPKPKDTLMISRTPEVTCVVVDVSHEDPEVKFNWYVDGVEVHNAKTKPREEQYNSTYRVVSVLTVLHQDWLNGKEYKCKVSNKALPAPIEKTISKAKGQPREPQVYTLPPSWDEPWGEDVSLTCLVKGFYPSDIAVEWESNGQPENNYKTTPPVLDSDGSFFLYSKLTVPYDRWVWPDEFSCSVMHEALHNHYTQKSLSLSPG
# light: DIQMTQSPSSLSASVGDRVTITCRASQSISSYLNWYQQKPGKAPKPLIYVASSLQSGVPSSFSGSGSGTDFTLTISSLQPEDFATYYCQQSYSNPITFGQGTRLEIKRTVAAPSVFIFPPSDEQLKSGTASVVCLLNNFYPREAKVQWKVDNALQSGNSQESVTEQDSKDSTYSLSSTLTLSKADYEKHKVYACEVTHQGLSSPVTKSFNRGEC
# notes: also called FS18-7-09/84G09LALA; FS18-7-9/84G09 LALA
# Tests used:
# [1] = target: T1, recombinant Fc-tagged human LAG-3 (R&D …); assay: SPR, BIAcore T200; mAb2 captured on Protein L, human LAG-3 Fc injected
# [2] = target: T2, human LAG-3 expressed on cells; assay: flow cytometry on HEK cells expressing human LAG-3
# Protocol: The affinity of the mAb² (all containing the LALA mutation) for cell expressed human or cynomolgus LAG-3 was determined using flow cytometry. HEK cells expressing human or cynomolgus LAG-3 grown in DMEM (Life Technologies, 61965-026) containing 10% FBS (Life Technologies, 10270-1-6), 100 μg/ml Hygromycin B (Melford Laboratories Ltd, Z2475), 15 μg/ml Blasticidin (Melford Laboratories Ltd, B1105) and 1 μg/ml Doxycyclin (Sigma, D9891) were detached from tissue culture flasks using cell dissociation buffer (Life Technologies, 13151-014) and seeded in V-bottom 96-well plates (Costar, 3897) at 2×10⁵ cells/well. The plates were centrifuged at 1500 rpm for 3 min at 4° C. to pellet the cells. A dilution series of the mAb² (or control mAb) were incubated with the cells in a 100 μl volume for 1 h at 4° C. The plates were washed and secondary antibody (Anti-human Fc-488, Jackson ImmunoResearch, 109-546-098) was diluted 1:1000 in PBS and 100 μl was added to the cells for 30 min at 4° C. (plates were kept in the dark). The plates were washed and then cells were resuspended in 100 μl PBS containing 1 μg/ml DAPI (Biotium, 40043). The plates were read using Canto II flow cytometer (BD Bioscience). Dead cells were excluded and the fluorescence in the FITC channel (488 nm/530/30) was measured. The data was fit using log (agonist) vs response in GraphPad Prism Software. The plates were read on a BD FACSCanto II cytometer (BD Biosciences) and the data analysed using FlowJo.
binder,measurement,setting,value
B1,Kd,[1],0.056 nM
same,koff,[1],0.00035 s⁻¹
same,kon,[1],6.3e+06 M⁻¹ s⁻¹
same,EC50,[2],3.18 nM
